Assay results: paper PMC4728125, “Molecular basis for allosteric specificity regulation in class Ia ribonucleotide reductase from Escherichia coli” (eLife, 2016)

B1: Escherichia coli class Ia ribonucleotide reductase catalytic subunit α2 (enzyme, E. coli, UniProt P00452 1-761, looked up)
chain: MNQNLLVTKRDGSTERINLDKIHRVLDWAAEGLHNVSISQVELRSHIQFYDGIKTSDIHETIIKAAADLISRDAPDYQYLAARLAIFHLRKKAYGQFEPPALYDHVVKMVEMGKYDNHLLEDYTEEEFKQMDTFIDHDRDMTFSYAAVKQLEGKYLVQNRVTGEIYESAQFLYILVAACLFSNYPRETRLQYVKRFYDAVSTFKISLPTPIMSGVRTPTRQFSSCVLIECGDSLDSINATSSAIVKYVSQRAGIGINAGRIRALGSPIRGGEAFHTGCIPFYKHFQTAVKSCSQGGVRGGAATLFYPMWHLEVESLLVLKNNRGVEGNRVRHMDYGVQINKLMYTRLLKGEDITLFSPSDVPGLYDAFFADQEEFERLYTKYEKDDSIRKQRVKAVELFSLMMQERASTGRIYIQNVDHCNTHSPFDPAIAPVRQSNLCLEIALPTKPLNDVNDENGEIALCTLSAFNLGAINNLDELEELAILAVRALDALLDYQDYPIPAAKRGAMGRRTLGIGVINFAYYLAKHGKRYSDGSANNLTHKTFEAIQYYLLKASNELAKEQGACPWFNETTYAKGILPIDTYKKDLDTIANEPLHYDWEALRESIKTHGLRNSTLSALMPSETSSQISNATNGIEPPRGYVSIKASKDGILRQVVPDYEHLHDAYELLWEMPGNDGYLQLVGIMQKFIDQSISANTNYDPSRFPSGKVPMQQLLKDLLTAYKFGVKTLYYQNTRDGAEDAQDDLVPSIQDDGCESGACKI
notes: Ribonucleotide reductase class Ia α subunit (NrdA, protein R1), E. coli; residues about 4-737 modelled; 172-kDa homodimer; no tag is named for this preparation; The His6-tagged α2 was used only in the activity assays; also called α subunit; RNR α; source: prepared as described (Salowe et al., 1987; Salowe and Stubbe, 1986), purified

Experiments:
[1] = target: ribonucleotide reductase β2 (Escherichia coli) (UniProt P69924); conditions: cited from earlier work
[2] = target: the molecule itself; experiment: crystal structure; α4β4 crystal form; 25 μM α2 and 50 μM met-β2 in 50 mM HEPES, 15 mM MgCl2, 1 mM EDTA, pH 7.6, with 10 mM dATP and 5 mM DTT; hanging drop, ~25°C; crystals soaked with CDP/dATP, UDP/dATP, ADP/dGTP or GDP/TTP; four structures at 2.97-3.40 Å

ribonucleotide reductase β2 (Escherichia coli), sequence (P69924 2-376): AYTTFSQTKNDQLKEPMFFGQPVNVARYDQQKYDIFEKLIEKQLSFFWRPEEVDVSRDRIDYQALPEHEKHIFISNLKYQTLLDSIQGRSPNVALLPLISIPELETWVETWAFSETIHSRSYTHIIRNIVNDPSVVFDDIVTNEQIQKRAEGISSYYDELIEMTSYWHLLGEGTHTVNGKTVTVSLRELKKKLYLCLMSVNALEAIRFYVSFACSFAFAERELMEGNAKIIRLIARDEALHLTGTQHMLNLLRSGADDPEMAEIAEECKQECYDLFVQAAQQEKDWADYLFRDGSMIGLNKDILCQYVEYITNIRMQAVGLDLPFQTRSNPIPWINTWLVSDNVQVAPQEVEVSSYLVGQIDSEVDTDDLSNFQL

| Molecule | Kd [1] | binding result [2] |
| --- | --- | --- |
| ribonucleotide reductase α2 (from UniProt P00452) | 400 nM |  |
| B1 |  | binds |
